Results on 22 sequences are retold here after the DeepSol protein solubility set.

A short description of this series: soluble on expression in E. coli; label from the status in PepcDB or PDB records.
With “MSLAYQSEYALENEMMNQLEQLGYERVTIRDNKQLLDNFRTILNERHADKLEGNPLTDKEFQRLLTMIDGKSIFESARILRDKLPLRRDDESEIYLSFLDTKSWCKNKFQVTNQVSVEDTYKARYDVTILINGLPLVQVELKRRGIDINEAFNQVKRYRKQNYTGLFRYIQMFIISNGVETRYFSNNDSELLKSHMFYWSDEGHHHHHH”, the “soluble on expression in E. coli” value is given as “not soluble”. Consider “MDIRPARISDLTGMQNCNLHNLPENYQLKYYLYHAISWPMLSYVATDPKGRVVGYVLAKMEEEPKDGIPHGHITSVSVMRSYRHLGLAKRLMVQSQRAMVEVYGAKYMSLHVRKSNRAAIHLYRDTLQFDVQGIESKYYADGEDAYAMHKDFSTLKFDTPETNDELAKTVQSLALNN”, for which the “soluble on expression in E. coli” value was “soluble”.

“SLPHPAPGPGDPEDPRLAEVVDAVRSSRRYQSVAPETVRRLATSALVASRGDLAEAVKRTKRGLHEIFGAYLPSPPKYDALLRQLRGAVDAATTRPCGHPAPRHVHARLHPRALPILDEFYREVFARCADPASVRDLACGMNPLAAPWMPGSDAFTYHASDIDTRLMEFLDAALETLGVAHDVRVRDLMTGVGEVETDVTLLLKTVPCIEAQGRGQGWDLIDAIRSPLVVVSFPTKSLGQRSKGMFNTYSANFDAWLENRPHDVEQLEFRNELVYFVRKNA”: the “soluble on expression in E. coli” value is recorded as “soluble”. Turning to “MKRLIGLVIVALVLLAACGSNNDKKVTIGVASNDTKAWEKVKELAKKDDIDVEIKHFSDYNLPNKALNDGDIDMNAFQHFAFLDQYKKAHKGTKISALSTTVLAPLGIYSDKIKDVKKVKDGAKVVIPNDVSNQARALKLLEAAGLIKLKKDFGLAGTVKDITSNPKHLKITAVDAQQTARALSDVDIAVINNGVATKAGKDPKNDPIFLEKSNSDAVKPYINIVAVNDKDLDNKTYAKIVELYHSKEAQKALQEDVKDGEKPVNLSKDEIKAIETSLAK”, the “soluble on expression in E. coli” value is recorded as “soluble”.

“MASFPFLMTPETMNKLVTPNSASISSSSSSPSTSTSFSIDTLLSNPLAGIPQLHNFQDPFGAVGAAAAASALPWQFHPANYPFFSMLCGPLMPPFMAPYHHQHYASRRKRRHRTIFSEEQLNILETTFSTTHYPDATTREELAVQCSLKEERVEVWFKNRRAKERKQKKDDSRTSKHSGDDSECDESDEDTRKVKRIKRENSSGKETSSPESKASLKTSHSENLVLEPC”: the “soluble on expression in E. coli” value is given as “not soluble”. For “MGSDKIHHHHHHMLDSSSGNAPDTHAAVDSAVLVSLDLNDSDSAENLEELRQLAASDRLAISAVVLGKRLRPDPATFAGSGKVDEIMGAVEQTGASLVIFNHDLSPAQQRNLEQRLRRRVIDRTSLILDIFAQRAKSHEGKLQVELAQLEHLATRLVRGWTHLERQKGGIGLRGPGETQLETDRRLLGKRVKVLKEKLAKFERQRALQRRARRRAQVMSVSLVGYTNAGKSTLFNRLTRGHTYVADQLFATLDATTRKLFIADRGPLVLSDTVGFIRDLPHTLVAAFRATLEETVQADLLLHVVDTSSSNRSEQIDEVNKVLKEIGADRIPQILVLNKTDLVDLPASSPGYQRDEYGRIVQVRLSAKTGEGLEFINLALSEALGERAALREPDNQSEAQDITSGYH” the value was “not soluble”.

On to “MSLKRIVVANDLVGVGKVALSASIPLMASCLLEQVLLPTCLLSSHTGGGQNPVKHTTSSILDVFLTDWDNKRIKFDGIFIGYFTTTRDGQKLLEWLSRKQLPLILDPIMADNGKLYQGFSQKHIEIMIKLTQKAELVLPNISEACLLTQTAYLAKNYDEEDIRQVARKLAKLGPKQVVISGISFEEGSIGFAYYQSDSDQLTFHFGKQFPYHFYGTGDIASAIITAGFYYQLPLTQILDLVVSFLEKVLQNTLTLKRDLILGVAYESHLNYLTEGHHHHHH”, for which the “soluble on expression in E. coli” value was “not soluble”.

Regarding “SMNSNMGSDSGTMGSDSDEENVAARASPEPELQLRPYQMEVAQPALEGKNIIICLPTGSGKTRVAVYIAKDHLDKKKKASEPGKVIVLVNKVLLVEQLFRKEFQPFLKKWYRVIGLSGDTQLKISFPEVVKSCDIIISTAQILENSLLNLENGEDAGVQLSDFSLIIIDECHHTNKEAVYNNIMRHYLMQKLKNNRLKKENKPVIPLPQILGLTAS”, the “soluble on expression in E. coli” value is given as “soluble”.

For the sequence “GSHMTGPVTKEDLGRATWTFLHTLAAQYPEKPTRQQKKDVKELMTILSRMYPCRECADHFKEILRSNPAQAGSQEEFSQWLCHVHNTVNRSLGKLVFPCERVDARWGKLECEQKSCDLHGTSMDF”, the “soluble on expression in E. coli” value is “soluble”. The same measure for “SGWRSSVSRSLRPETSCDRPSSHLRNMDVNMAAELSPTNSSSSGELSVSPEPPRETQAFLGKVTVIDYFTFQHKHLKVTNIDDMTETLYVKLPENMTRCDHLPITCEYLLGRGSYGAVYAHADNATVKLYDSVTELYHELMVCDMIQIGKATAEDGQDKALVDYLSACTSCHALFMPQFRCSLQDYGHWHDGSIEPLVRGFQGLKDAVYFLNRHCGLFHSDISPSNILVDFTDTMWGMGRLVLTDYGTASLHDRNKMLDVRLKSSKGRQLYRLYCQREPFSIAKDTYKPLCLLSKCYILRGAGHIPDPSACGPVGAQTALRLDLQSLGYSLLYGIMHLADSTHKIPYPNPDMGFDRSDPLYFLQFAAPKVVLLEVLSQMWNLNLDMGLTSCGESPCVDVTAEHMSQFLQWCRSLKKRFKESYFFNCRPRFEHPHLPGLVAELLADDFFGPDGRRG”: “soluble”; for “MSKKEETIFFRIEKENRPESSKKEEDENSTEEMTTLNHASVTLDHSAFAIADKDGFKMYQLNPLHFRMYKDYVIKVGPVRLVKQDGNSRRIIYVSALAGGRFAQNNLMIFDVARNEEYFEITTPSRYGPITNIHVSPNRLVALNPNRMFVWTYPDDIKQIRSEDIRSNPKGISAMSYDPTTAACYLAYPGFKTGSVQIMHLNALTARESKSPIVIEAHLTDIAQVALNCQGTLVATGSTKGTVIRVFDARTKGPLYELRRGTVQAHLQCMAFSPCSSYLAVASDKGTLHMFGIRDAEPQKKKNVLERSRGSSSIVKIQLDRPVMAIGFGKIPETPKNLQSIIAICADATYWRHEFYKDNTGNFTSHFGSYDELIEVANDSSFFRTPVE”: “not soluble”; for “MKPIIVKKGDIRRLLKESGEIDGNDGRISVAAHILYQFGDRIVFVKAYENEDIDLKIKNRKNDYRYIKVIASQNGEFHIMDLPIGDRRIGSETLYGLIMASETFGTRLRNEILNMISFEMKRRNSIWILVDKDSHAYYPFTTHSITEIILHDVEYRFERGLIDRNLEIRVPVQFIYNYWQRYLKAKNRTPGEVWASMILQ”: “not soluble”. With “MKHDHFIVQSPAAPAQQLLLLFHGVGDNPVSMGQIGSWFAPQFPDALIVSIGGVEPCGPNGRQWFSLQGVTEENRQQRIDAIMPTFIEIVRYWQEKSGVSPLATALIGFSQGAIMSLESIKAAPDLASRVIAFNGRYATLPETATTATTIHLIHGGEDRVIDLAWAVSAEEALQQAGGDVTLDIVDDLGHAIDDRSMQLAIERLRYTVPKHY”, the “soluble on expression in E. coli” value is given as “not soluble”. For “MTEYIQDAIPAKLAIAIANPIFPQLDSQLRAGRHISIEMLDEHAFLMDFQTELESFYRRYHVDLIRAPEGFFYLRPKASTLIARSAMSEMEMLVGKVLCYLYLSPERLAQQGIFSQDDVYEELLNLADENKLLKAVNPRSTGSDLDRAKLAEKVGGALRRLARIGIITRVGEQNSKKFIISEAVFRFGADVRAGDDPREVQLRLIRDGEATTPTLLTTEAIEFAEDGARDELEESEAELEHHHHHH” the value was “soluble”. For “MGSDKIHHHHHHMVGIGFRKDFAAKFLNTTDLQPDFIEVAPENWIGIGGLWKKRLQQALEKYPLYTHGLSLSIGSPDALDFDLLKGVKKFLAETGAKVYSEHLSYSKCDNAHLYDLLPIPFTHDAVKHIAKRIQTIQDFLERRLAIEIVSYYSPVAAEMSELEFVNAILQESDCDLLLDVNNIYVNGFNHNYDPYAFINQLPLERVAYIHIAGHDQVSETLIIDTHGEAIVDPVYYLYQYTMNQLQRDVPTLLERDFNIPQLSELQGEIDRLKKIKADCLTKELYGIQR” the value was “not soluble”; for “MPAKTGQEYMERLKRAKSSVYIHGEKVEDVTVHPAFRNVVRSMAALYDRQYEKPEKMLYRSPTTGQLVGMTFIQPTTIDELIARREATQEWARMSAGMMGRSPDYLNAEVMAMGVANDLFAEDDPMFAENAKNYYEYARENDISLTHTLIHPQMNRAKALHEQNDADVPLHLVERRKDGIIVSGIRLLATQGGITDEILVFPSTVKKSTAGEDPYALAFAIPNNTPGVKFICREAFDYGRSSWDHPLASRFEEGDAIVSFENVFVPWERVFVCGNSSICNRTFRETNAVIHMSHQVVAKNIVKTEFLLGVTLCLIEAIGIGEFQHVKDKGAEIMLVLETMKSHLYRAEHNAKRDRWGTMTPDFAALDAARNWYPRIYPRLSEIIRILGASGLMAIPTEADFHNEEIGEIVSRAMQGATVDGYERVQLFRLAWDLTMSAFGARQTHYEYYFFGDPVRMGMAYFDGYEKEPYKQFVREFLRGAKSVFIPSDNKH”, “not soluble”; for “MNNIQTNTRDQDSLEYILQLELDNIRLFLELLEHERNLLAAGNLDDLALLVADKDRLIDQFARLDMRRNRFLNAAGLPEGTQGMNAWVSGSDEESTVARDWEELLGLADLAKQLNQTNAVITSSWLQYTRRTLNALHSAAGRPPLYNTKGQTT”, “not soluble”. For “MGSDKIHHHHHHMSSDSVIRVSNLGKRYEIYAQPKDRLKQMVMPRLKRMIGMHPPEYFREFWALRGVSFEVRRGETVAIIGQNGSGKSTLLQLVCGTLFPTNGDIQVKGRIAALLELGAGFNPEFTGEENIYLSGLLYGISEDELRNRFDSIVEFAEIGEFISQPVKTYSSGMYVRLAFAIAAHVDADMLVVDEALSVGDVRFTQKCMRFLREFQKTGTLLFVSHDVGAVTSLCSRAIWLNQGVLKMDGPAKETVEAYLAEQHALDRGQRGDVVQLAKAREKVAKQPAKAANPPVVDVVDQRWEALRANGSGTRIEVFEFMPDSSESEFGARGATIERVALRNEAGEDLPIVQGGELVDLYIESRSHQALAGLIFGFYLKDRLGQRLFGDNTFMTYADREVRSQAGDTHIARFRFRMPIMPVGAYSFDVAIATGNQHDHTQQHWIHDALSMRAVDSTMRHGLVGIPMLEIAISKEG” the value was “not soluble”; for “NLLIQELCQAVINHFVRYLNINLGALYVSNEVESSLHLLSGYALSKAKKEMPAIRFGDGIVGQVAQERRLLVLENIPGENFVLESGLGDIQPSHILIAPILYQERMLGVIELGSLEPFTENHKEYMSHVMDSIAIAITSAHAREKVRELLEETQR”, “not soluble”.

Take “ATVKFKYKGEEKEVDISKIKKVWRVGKMISFTYDEGGGKTGRGAVSEKDAPKELLQMLEKQKK”: the “soluble on expression in E. coli” value was “soluble”. The same measure for “MSLSETATQAPQPANVLLEVNDLRVTFATPDGDVTAVNDLNFTLRAGETLGIVGESGSGKSQTAFALMGLLATNGRIGGSATFNGREILNLPERELNTLRAEQISMIFQDPMTSLNPYMRVGEQLMEVLMLHKGMSKAEAFEESVRMLDAVKMPEARKRMKMYPHEFSGGMRQRVMIAMALLCRPKLLIADEPTTALDVTVQAQIMTLLNELKREFNTAIIMITHDLGVVAGICDKVLVMYAGRTMEYGKARDVFYQPVHPYSIGLLNAVPRLDSEGAEMLTIPGNPPNLLRLPKGCPFQPRCPHAMEICNNAPPLEAFSPGRLRACFKPVEELL”: “not soluble”; for “MSLRVRQIDRREWLLAQTATECQRHGREATLEYPTRQGMWVRLSDAEKRWSAWIKPGDWLEHVSPALAGAAVSAGAEHLVVPWLAATERPFELPVPHLSCRRLCVENPVPGSALPEGKLLHIMSDRGGLWFEHLPELPAVGGGRPKMLRWPLRFVIGSSDTQRSLLGRIGIGDVLLIRTSRAEVYCYAKKLGHFNRVEGGIIVETLDIQHIEEENNTTETAETLPGLNQLPVKLEFVLYRKNVTLAELEAMGQQQLLSLPTNAELNVEIMANGVLLGNGELVQMNDTLGVEIHEWLSESGNGE”: “not soluble”.
